The text below walks through data of patent US20240117038A1 (Ablynx, published 2024).

Test [1] concerns the target T1, human CX3CR1 (human, UniProt P49238 1-355).
T1 construct: Overexpressed on CHO K1, Ba/F3 or HEK293T cells; also called huCX3CR1; hCX3CR1
T1 sequence: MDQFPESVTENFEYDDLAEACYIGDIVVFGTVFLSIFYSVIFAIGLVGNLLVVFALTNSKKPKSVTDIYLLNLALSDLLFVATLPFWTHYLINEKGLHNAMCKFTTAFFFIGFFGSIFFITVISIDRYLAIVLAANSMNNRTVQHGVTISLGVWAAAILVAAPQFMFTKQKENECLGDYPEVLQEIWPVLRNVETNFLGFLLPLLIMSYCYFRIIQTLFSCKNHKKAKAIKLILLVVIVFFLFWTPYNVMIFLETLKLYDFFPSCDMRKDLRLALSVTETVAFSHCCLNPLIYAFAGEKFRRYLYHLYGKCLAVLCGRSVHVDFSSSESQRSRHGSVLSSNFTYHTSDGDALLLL
Nature of the test: competition flow cytometry vs soluble huCX3CL1-AF647 on CHO K1 huCX3CR1 cells, 30 uM HSA. On the technique in general: A flow cytometer gives signals particle by particle.

The target in test [2] is T1, human CX3CR1. The experiment in a line: flow cytometry on CHO K1 huCX3CR1 cells, 30 uM HSA. On the procedure: (§1) CHO cells overexpressing human or cynomolgus CX3CR1 were generated using techniques known in the art. Cells were harvested and resuspended in assay buffer (PBS, 2% FBS, 0.05% NaN3) and seeded separately in 384-well Bio-One V-bottom plates (Greiner, Cat. No. 781280), with a total of 2E04 cells seeded per well. After washing, serial dilutions of multivalent ISVD construct (starting from 250 nM, 3-fold dilution, 11 points, diluted in assay buffer), were added and incubated for 4 hours at 4° C. Binding was performed in the presence of 30 uM HSA (Sigma-Aldrich, Cat. No. A8763). Plates were then washed 3 times and cells were incubated with an anti-VHH mouse antibody (3300-fold diluted in assay buffer) for 30 minutes at 4′° C. […] Plates were finally washed 3 times and cells were resuspended in PI (Miltenyi Biotec, Cat. No. 130-093-233, 1000-fold diluted in assay buffer). Cell suspensions were analyzed with iQue Screener PLUS (Intellicyt). EC50s were estimated by dose response modelling. Curves were fit using 4 parameter logistic regression in GraphPad (GraphPad Software Inc.). A purified anti-human CX3CR1 antibody [K0124E1] (BioLegend, Cat. No. 355701/355702) was used as positive control to detect CX3CR1 expression on the cell surface.

Another test addresses T2, cynomolgus CX3CR1 (cynomolgus monkey (Macaca fascicularis), UniProt P49238 1-355 (human entry)).
T2 construct: Overexpressed on CHO K1 cells; also called cyno CX3CR1; cyCX3CR1
T2 chain: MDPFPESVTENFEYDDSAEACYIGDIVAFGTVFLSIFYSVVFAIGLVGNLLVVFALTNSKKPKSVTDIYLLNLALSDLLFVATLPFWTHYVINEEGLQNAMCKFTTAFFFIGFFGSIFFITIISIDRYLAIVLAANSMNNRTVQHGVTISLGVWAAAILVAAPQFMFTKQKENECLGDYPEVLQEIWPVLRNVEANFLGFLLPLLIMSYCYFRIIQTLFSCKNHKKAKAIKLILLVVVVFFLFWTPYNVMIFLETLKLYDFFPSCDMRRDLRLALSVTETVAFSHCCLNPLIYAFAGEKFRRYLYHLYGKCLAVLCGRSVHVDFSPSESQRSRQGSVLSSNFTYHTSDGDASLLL
Nature of the test: flow cytometry on CHO K1 cyCX3CR1 cells, 30 uM HSA. The procedure: as §1

Test [3] has as its target T1, human CX3CR1. The experiment in a line: flow cytometry on transiently transfected HEK293T cells, human CX3CR1 WT. The procedure:
as §1, with “After” for “CHO cells overexpressing human or cynomolgus CX3CR1 were generated using techniques known in the art. Cells were harvested and resuspended in assay buffer (PBS, 2% FBS, 0.05% NaN3) and seeded separately in 384-well Bio-One V-bottom plates (Greiner, Cat. No. 781280), with a total of 2E04 cells seeded per well. After”
Two important SNPs are described in huCX3CR1, i.e. V2491 (Rs3732379) and T280M (Rs3732378), which might influence receptor activity and binding by the ISVD. […] Different combinations of these SNPs were introduced in human CX3CR1, and binding by 5 selected multivalent ISVD constructs was assessed with flow cytometry after transient transfection of the huCX3CR1 variants in HEK293T cells.
In short, the CX3CR1 constructs were cloned into pcDNA3.1 (ThermoFisher Scientific, Cat. No. V79020) and plasmid DNA was prepared from Escherichia coli TOP10 cells. HEK293T cells were seeded at a concentration of 1.5E06 cells per T75 flask and incubated overnight at 37° C. in DMEM medium (Gibco, Cat. No. 31966) supplemented with 10% FBS (Sigma. Cat. No. F7524). The medium was then replaced by Opti-MEM medium (Gibco, Cat. No. 31985). A mixture of 9 μg plasmid DNA, 27 μL Fugene 6 (Promega, Cat. No. E2691) in a final volume of 1 mL Opti-MEM was incubated for 15 minutes at room temperature and then added to the cells. After 3 hours incubation at 37° C., 10 mL of DMEM supplemented with 20% FBS was added, and incubation continued.

B1: A041600035 (VHH)
chain: DVQLVESGGGSVQPGGSLRLSCAASGSIFSSTAMAWYRQAPGKQRDLVAVISTVGITKYADSVKGRFTISRDNAKNTVYLQMNSLRPEDTALYYCTSDARRGWDTRYWGQGTLVTVSSGGGGSGGGSEVQLVESGGGSVQPGGSLRLSCAASGSIFSSTAMAWYRQAPGKQRDLVAVISTVGITKYADSVKGRFTISRDNAKNTVYLQMNSLRPEDTALYYCTSDARRGWDTRYWGQGTLVTVSSGGGGSGGGSEVQLVESGGGVVQPGGSLRLSCAASGFTFRSFGMSWVRQAPGKGPEWVSSISGSGSDTLYADSVKGRFTISRDNSKNTLYLQMNSLRPEDTALYYCTIGGSLSRSSQGTLVTVSSA
notes: Trivalent ISVD construct (two anti-CX3CR1 ISVDs, one anti-albumin ISVD), C-terminal alanine included in the entry; also called 54A12_SO (E1D)-9GS-54A12_SO-9GS-ALB23002-A
Turning to B1, in the test with human CX3CR1 [1], the “% inhibition” value came to 99% and the IC50 was found to be 2.5 nM. In the test with human CX3CR1 [2], this molecule displayed an EC50 of 0.36 nM and a top of 50900. In the test with cynomolgus CX3CR1, the EC50 was 0.24 nM and the top was 411000. Also, the EC50 with human CX3CR1 [3] turned out to be 0.13 nM.

B2: A041600041 (VHH)
chain: DVQLVESGGGSVQPGGSLRLSCAASGSIFSSTAMAWYRQAPGKQRDLVAVISTVGITKYADSVKGRFTISRDNAKNTVYLQMNSLRPEDTALYYCTSDARRGWDTRYWGQGTLVTVSSGGGGSGGGSEVQLVESGGGSVQPGGSLRLSCAASGSIFSSTAMAWYRQAPGKRRDLVAAINTVGVTKYADSVKGRFTISRDNAKNTVYLQMNSLRPEDTALYYCTSDPRRGWDTRYWGQGTLVTVSSGGGGSGGGSEVQLVESGGGVVQPGGSLRLSCAASGFTFRSFGMSWVRQAPGKGPEWVSSISGSGSDTLYADSVKGRFTISRDNSKNTLYLQMNSLRPEDTALYYCTIGGSLSRSSQGTLVTVSSA
notes: Trivalent ISVD construct (two anti-CX3CR1 ISVDs, one anti-albumin ISVD), C-terminal alanine included in the entry; also called 54A12_SO (E1D)-9GS-66B02_SO-9GS-ALB23002-A
As to B2, in the test with human CX3CR1 [1], the “% inhibition” value stood at 97% and the IC50 came to 2.7 nM. Also, in the test with human CX3CR1 [2], a half-maximal effect (EC50) was put at 0.22 nM and the top came out at 41800. For the same molecule, in the test with cynomolgus CX3CR1, a half-maximal effect (EC50) was put at 0.15 nM and the top was determined as 346000. In addition, in the test with human CX3CR1 [3], the half-maximal effective concentration (EC50) amounted to 0.16 nM.

B3: A041600025 (VHH)
chain: DVQLVESGGGSVQPGGSLRLSCAASGSIFSSTAMAWYRQAPGKQRDLVAVISTVGITKYADSVKGRFTISRDNAKNTVYLQMNSLRPEDTALYYCTSDARRGWDTRYWGQGTLVTVSSGGGGSGGGSEVQLVESGGGVVQPGGSLRLSCAASGFTFRSFGMSWVRQAPGKGPEWVSSISGSGSDTLYADSVKGRFTISRDNSKNTLYLQMNSLRPEDTALYYCTIGGSLSRSSQGTLVTVSSGGGGSGGGSEVQLVESGGGSVQPGGSLRLSCAASGSIFSSTAMAWYRQAPGKQRDLVAVISTVGITKYADSVKGRFTISRDNAKNTVYLQMNSLRPEDTALYYCTSDARRGWDTRYWGQGTLVTVSSA
notes: Trivalent ISVD construct (two anti-CX3CR1 ISVDs, one anti-albumin ISVD), C-terminal alanine included in the entry; also called 54A12_SO (E1D)-9GS-ALB23002-9GS-54A12_SO-A
For the molecule B3, the “% inhibition” value with human CX3CR1 [1] amounted to 98%. The same molecule yielded an IC50 with human CX3CR1 [1] of 3.8 nM. Further, the EC50 in the test with human CX3CR1 [2] stood at 0.46 nM; in the test with cynomolgus CX3CR1 it was 0.36 nM; in the test with human CX3CR1 [3] it was 0.065 nM. In addition, the top with human CX3CR1 [2] was 28700; with cynomolgus CX3CR1, 266000.

B4: A041600034 (VHH)
chain: DVQLVESGGGSVQPGGSLRLSCAASGSIFSSTAMAWYRQAPGKQRDLVAVISTVGITKYADSVKGRFTISRDNAKNTVYLQMNSLRPEDTALYYCTSDARRGWDTRYWGQGTLVTVSSGGGGSGGGSEVQLVESGGGVVQPGGSLRLSCAASGFTFRSFGMSWVRQAPGKGPEWVSSISGSGSDTLYADSVKGRFTISRDNSKNTLYLQMNSLRPEDTALYYCTIGGSLSRSSQGTLVTVSSGGGGSGGGSEVQLVESGGGSVQPGGSLRLSCAASGSIFSSTAMAWYRQAPGKRRDLVAAINTVGVTKYADSVKGRFTISRDNAKNTVYLQMNSLRPEDTALYYCTSDPRRGWDTRYWGQGTLVTVSSA
notes: Trivalent ISVD construct; also called 54A12_SO (E1D)-9GS-ALB23002-9GS-66B02_SO-A
Consider B4, for which, in the test with human CX3CR1 [1], the “% inhibition” value was found to be 95% and the IC50 was 4.5 nM. In the test with human CX3CR1 [2], this molecule yielded an EC50 of 0.63 nM and a top of 28200. In the test with cynomolgus CX3CR1, this molecule registered an EC50 of 0.45 nM and a top of 273000. For the same molecule, the EC50 with human CX3CR1 [3] was 0.1 nM.

B5: A041600085 (VHH)
chain: DVQLVESGGGLVQPGGSLRLSCAASGSIFSSTAMAWYRQAPGKRRDLVAAISTVGVTKYADSVKGRFTISRDNSKNTVYLQMNSLRPEDTAVYYCTSDPRRGWDTRYWGQGTLVTVSSGGGGSGGGSEVQLVESGGGVVQPGGSLRLSCAASGFTFRSFGMSWVRQAPGKGPEWVSSISGSGSDTLYADSVKGRFTISRDNSKNTLYLQMNSLRPEDTALYYCTIGGSLSRSSQGTLVTVSSGGGGSGGGSEVQLVESGGGLVQPGGSLRLSCAASGSIFSSTAMAWYRQAPGKRRDLVAAISTVGVTKYADSVKGRFTISRDNSKNTVYLQMNSLRPEDTAVYYCTSDPRRGWDTRYWGQGTLVTVSSA
notes: also called 307-9GS-ALB23002-9GS-307 (D1E)-A
Take B5: in the test with human CX3CR1 [1], the “% inhibition” value amounted to 103% and the IC50 is 7.7 nM. For the same molecule, in the test with human CX3CR1 [2], the EC50 turned out to be 0.17 nM and the top worked out at 14600. For the same molecule, in the test with cynomolgus CX3CR1, the EC50 was 0.56 nM and the top turned out to be 186000. The EC50 in the test with human CX3CR1 [3] came out at 0.12 nM.

Broadly, the % inhibition is the drop in the measured response relative to a control, in per cent. Broadly, the IC50 is the point on the concentration scale where inhibition reaches its midpoint. One may read the EC50 as the midpoint of the concentration-response curve.
